Test results taken from patent US20030022355A1.

Molecular target: fiber receptor (cellular receptor for wild-type adenoviral fiber protein)
Test: competition on A549 cells; labelled competitor GV10 UTV; soluble fiber at 0 to about 10 ug/ml

soluble wild-type fiber protein
percent of GV10 UTV binding inhibited: 40%
